In article PMC4595432:

Molecular target: DnaA fused to the N-terminal domain of the phage 434 repressor (pcI434-dnaA) (E. coli K12) (UniProt P03004)
Test: two-hybrid; bacterial two-hybrid system in E. coli R721 (434-P22 chimeric operator upstream of lacZ); fusions to the N-terminal domains of the 434 and P22 repressors; β-galactosidase in Miller units, cultures at A600 0.5 in LB with 0.1 mM IPTG; an interaction lowers the activity and is scored positive when the ratio to R721 is below 0.5

HtpG fused to the N-terminal domain of the phage P22 repressor (pcIP22-htpG) (from UniProt P0A6Z3 1-624) (natural protein)
ratio β-galactosidase activity tested strain/R721: 0.19 | β-galactosidase activity: 1070 Miller units
